# Source: publication PMC8812994
# Target: rMjShoc2 (recombinant MjShoc2) (Marsupenaeus japonicus)
# Test: ITC; MICROCAL PEAQ-ITC; rFlaA (2 mM) in the syringe, rMjShoc2 (0.2 mM) in the cell; 2 μl injections, 25°C; one set of sites model
substance,measurement,value
rFlaA (recombinant FlaA of the ITC assay) (from UniProt Q60246 1-379) (natural protein),Kd,10 µM
